For the experiment, the target named is T1, HLA-B*08:01 class I complex (biotinylated heavy chain with beta2-microglobulin) (human).
T1 construct: Conditional HLA class I complex loaded with a UV-labile peptide that is exchanged for the test peptide
Put plainly: UV peptide exchange + HLA class I ELISA; % of Pos control peptide. (In general: In an ELISA, binding on a coated surface is turned into a signal by an enzyme label.)

Method: The exchange efficiency between the peptide of interest and Pos was analyzed using an HLA class I ELISA.
The UV control represented UV-irradiation of conditional HLA class I complex in the absence of a rescue peptide. […] The HLA class I ELISA is an enzyme immunoassay based on the detection of beta2-microglobulin (B2M) of (peptide-stabilized) HLA class I complexes. To this end streptavidin was bound onto polystyrene microtiter wells. […] Non-bound material was removed by washing. Subsequently, horseradish peroxidase (HRP)-conjugated antibody to human B2M was added. […] In the latter case B2M was removed during the washing step. After removal of non-bound HRP conjugate by washing, a substrate solution was added to the wells. A coloured product formed in proportion to the amount of intact HLA complex present in the samples. After the reaction was terminated by the addition of a stop solution, absorbance was measured in a microtiter plate reader.

RAKCKFSIL (Synthetic 9-mer) [P56 9-mer neoantigen peptide RAKCKFSIL (SPOP(F102C) missense)]: the “exchange rate with Pos peptide” value was 38%.

As for GVLRRLLCR (Synthetic 9-mer) [P37 9-mer neoantigen peptide GVLRRLLCR (TSTD1-F11R fusion)], the “exchange rate with Pos peptide” value was 3.3%. Regarding FLFLLLPLS (Synthetic 9-mer) [P87 9-mer neoantigen peptide FLFLLLPLS (AR-Intron splice variant)], the “exchange rate with Pos peptide” value was 3.1%.

For FPVGAEGTF (Synthetic 9-mer) [P27 9-mer neoantigen peptide FPVGAEGTF (FAM126B-ORC2 fusion)], the “exchange rate with Pos peptide” value was 6.4%. As to CPMSRLRLA (Synthetic 9-mer) [P46 9-mer neoantigen peptide CPMSRLRLA (TP53 (R213D) frameshift)], the “exchange rate with Pos peptide” value came to 14.5%. Regarding STRRAVRRM (Synthetic 9-mer) [P16 9-mer neoantigen peptide STRRAVRRM (MSMB-NCOA4 fusion)], the “exchange rate with Pos peptide” value was 6.2%.

For the molecule NMVENGCYL (Synthetic 9-mer) [P59 9-mer neoantigen peptide NMVENGCYL (FOXA1 (F254V) missense)], the “exchange rate with Pos peptide” value was found to be 5.5%. For the molecule RVGNCKHLK (Synthetic 9-mer) [P82 9-mer neoantigen peptide RVGNCKHLK (AR-V7 splice variant)], the “exchange rate with Pos peptide” value was determined as 1.4%.

On to YLRRQKRLK (Synthetic 9-mer) [P60 9-mer neoantigen peptide YLRRQKRLK (FOXA1.p.F266L missense)], for which the “exchange rate with Pos peptide” value was determined as 10.2%. In the case of LMAQRLLLR (Synthetic 9-mer) [P97 9-mer neoantigen peptide LMAQRLLLR (FOXRED2-TXN2 fusion)] it was 2.7%; in that of IVWWCPMSR (Synthetic 9-mer) [P98 9-mer neoantigen peptide IVWWCPMSR (TP53 (R213D) frameshift)], 2.4%. HVPKILSGK (Synthetic 9-mer) [P58 9-mer neoantigen peptide HVPKILSGK (AR (Q903H) missense)]: the “exchange rate with Pos peptide” value was determined as 5.3%. Take RAVRRMNTF (Synthetic 9-mer) [P17 9-mer neoantigen peptide RAVRRMNTF (MSMB-NOCA4 fusion)]: the “exchange rate with Pos peptide” value worked out at 9%.

As for CYLGRQKRF (Synthetic 9-mer) [P61 9-mer neoantigen peptide CYLGRQKRF (FOXA1.p.R261G missense)], the “exchange rate with Pos peptide” value turned out to be 3.6%. For FFKRAAEGF (Synthetic 9-mer) [P77 9-mer neoantigen peptide FFKRAAEGF (AR-V3 splice variant)], the “exchange rate with Pos peptide” value was determined as 3.4%. Consider QLIAMDSAI (Synthetic 9-mer) [P22 9-mer neoantigen peptide QLIAMDSAI (SLC45A3-ELK4 fusion)], for which the “exchange rate with Pos peptide” value was 3.9%. For IQYSCMGLM (Synthetic 9-mer) [P50 9-mer neoantigen peptide IQYSCMGLM (AR (W742C) missense)], the “exchange rate with Pos peptide” value worked out at 4.7%. For the molecule LLERNSFEV (Synthetic 9-mer) [P73 9-mer neoantigen peptide LLERNSFEV (TP53 (G266E) missense)], the “exchange rate with Pos peptide” value worked out at 2.6%. IPVLTRWPL (Synthetic 9-mer) [P19 9-mer neoantigen peptide IPVLTRWPL (TMEM222-LOC644961 fusion)]: the “exchange rate with Pos peptide” value worked out at 14.5%. In the case of NSKMALNSL (Synthetic 9-mer) [P35 9-mer neoantigen peptide NSKMALNSL (TMPRSS2-ERG fusion)] it was 13.7%.

Source of the values: patent publication US20240139265A1 (published 2024).
